Substrate in data set [1]: C/C(=N\C#N)N(C)Cc1ccc(Cl)nc1
The experiment in a line: LC-MS/MS of metabolites, microsomes with recombinant P450/CPR, Michaelis-Menten fit. It counts as biochemical, Bombus terrestris. The note with it: NADPH regeneration system, 30 °C, 1 h, substrate 3.1-200 μM, house fly CPR co-expressed.

Substrate in data set [2]: N#C/N=C1\SCCN1Cc1ccc(Cl)nc1
The description is as above. It is filed as biochemical, Bombus terrestris. The note with it: NADPH regeneration system, 30 °C, 1 h, substrate 3.1-200 μM, house fly CPR co-expressed.

B1: CYP9Q6 (Bombus terrestris audax) (protein)
chain: MEYLSLGLFLIAILIAIYYCATKNHNLFKKHGILHIPPMPLFGNMGSFFAKRSTLQDTILEAYELHPEAKYVGIYESLTPIIVLRDLDLIKSVNMKNFDHFTDHRNFVFKDMDPIFAGMLFSMKGEQWKEQRSILSLAFTSNKVKDMFNLMSECATRYANYLSNLAENEREMEMRDLLTKYTNDVIATCVYGVSVDTIKNPKNVFYTYGKSTTFTSFKKDMAMLAQRNLPWLAKLFQLRFLEKHIAKFFTEQVINTIEERKQNGTYRSDILQLFIDVNDKKVPGKGMSTENMVNHAFSLFFGGTDSVATQTSFLFYLLAENPEILKRLQEEIDETLENNNGQLTYDAIQKMKYLDAMINEAMRLQPITVFLDRLCVKDFELPPALPGEKPFTVKAGMNIWIPVDAIHHDPKHYENPQKFDPDRFLENGKKIINSGAFMPFGLGPRICIGNRFALTEIKVLLCHILAKCNVKIGSKMLLPLQYEEGVITAYAKNGFWLNVEPREHSYCTSQTNGTTKHLSNGNCRN
notes: with NADPH--cytochrome P450 reductase (Musca domestica, house fly)
Consider B1, for which the Km in data set [1] is 27.32 µM; in data set [2], 15.83 µM.

Usually Km stands for the substrate concentration at which the rate is half of its maximum.

The values above are taken from PMC6675907, “Identification and functional characterisation of a novel N-cyanoamidine neonicotinoid metabolising cytochrome P450, CYP9Q6, from the buff-tailed bumblebee Bombus terrestris” (Insect Biochemistry and Molecular Biology, 2019).
